# Results from PMC2731525.
# Molecular target: biglycan (UniProt P21810)
# Assay: solid-phase binding assay
# UniProt P21810, sequence (P21810 38-368): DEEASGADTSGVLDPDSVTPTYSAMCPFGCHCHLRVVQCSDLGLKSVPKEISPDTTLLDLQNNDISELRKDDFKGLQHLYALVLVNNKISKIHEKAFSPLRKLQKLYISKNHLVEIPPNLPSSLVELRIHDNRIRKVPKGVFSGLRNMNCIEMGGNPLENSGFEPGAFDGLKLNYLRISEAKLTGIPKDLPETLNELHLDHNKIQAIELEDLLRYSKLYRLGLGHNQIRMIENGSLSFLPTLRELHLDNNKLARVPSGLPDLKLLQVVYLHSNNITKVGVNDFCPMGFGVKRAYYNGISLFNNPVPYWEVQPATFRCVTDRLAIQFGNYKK
row,Substance,Kd [nM]
1,LDL with high apoCIII from patients with type 2 diabetes (from UniProt P02656 21-99) (complex),8.6
2,apoCIII-free LDL isolated from diabetic LDL with high apoCIII/apoB molar ratio (natural protein),9.8
3,LDL with low apoCIII from patients with type 2 diabetes (from UniProt P02656 21-99) (complex),12.2
4,apoCIII-free LDL isolated from diabetic LDL with low apoCIII/apoB molar ratio (natural protein),12.8
